# Measurements: US7842469B2, “Bioluminescence resonance energy transfer (BRET) systems and methods of use thereof” (Stanford University, priority 2005, dated 2010)
# Substitutions are numbered along the chain they refer to. Names may count otherwise.
# B1: A55T/C124A: RLuc mutant A55T/C124A (protein)
# chain: MASKVYDPEQRKRMITGPQWWARCKQMNVLDSFINYYDSEKHAENAVIFLHGNATSSYLWRHVVPHIEPVARCIIPDLIGMGKSGKSGNGSYRLLDHYKYLTAWFELLNLPKKIIFVGHDWGAALAFHYSYEHQDKIKAIVHAESVVDVIESWDEWPDIEEDIALIKSEEGEKMVLENNFFVETMLPSKIMRKLEPEEFAAYLEPFKEKGEVRRPTLSWPREIPLVKGGKPDVVQIVRNYNAYLRASDDLPKMFIESDPGFFSNAIVEGAKKFPNTEFVKVKGLHFSQEDAPDEMGKYIKSFVERVLKNEQ
# B2: C124A/S130A: RLuc mutant C124A/S130A (protein)
# chain: B1 chain with T55A, S130A
# B3: C124A/K136R: RLuc mutant C124A/K136R (protein)
# chain: B1 chain with T55A, K136R
# B4: C124A/A143M: RLuc mutant C124A/A143M (protein)
# chain: B1 chain with T55A, A143M
# B5: C124A/Q235A: RLuc mutant C124A/Q235A (protein)
# chain: B1 chain with T55A, Q235A
# B6: C124A/M253L: RLuc mutant C124A/M253L (protein)
# chain: B1 chain with T55A, M253L
# B7: C124A/S257G: RLuc mutant C124A/S257G (protein)
# chain: B1 chain with T55A, S257G
# B8: C124A/F262L: RLuc mutant C124A/F262L (protein)
# chain: B1 chain with T55A, F262L
# B9: C124A/S287L: RLuc mutant C124A/S287L (protein)
# chain: B1 chain with T55A, S287L
# B10: C124A/M295I: RLuc mutant C124A/M295I (protein)
# chain: B1 chain with T55A, M295I
# B11: C124A/K300A: RLuc mutant C124A/K300A (protein)
# chain: B1 chain with T55A, K300A
# Tested on: not listed separately
# Assay: Luciferase activity of purified RLuc mutants (light output integrated over 10 s, luminometer)
# Assay type: biochemical
# Details: benzyl-coelenterazine; relative to native enzyme
# From the text: Luminometer Calibration: Light measurements were made using a Turner 20/20 and later a Turner 20/20n luminometer (Turner Designs, Sunnyvale, Calif.). The luminometers were calibrated to absolute units (photons/s) using the luminol light standard performed in dimethyl sulfoxide (DMSO). No corrections were applied for the spectral sensitivity of the luminometer, as the spectral peak of luminol chemiluminescence in DMSO (486 nm) is close to the spectral peak of Renilla Luciferase bioluminescence (482 nm).
# Characterization of Renilla Luciferase Mutants: Luciferase activity was measured by adding 1 μl of sample (diluted as necessary in EB containing 1% HSA) to 100 μl room temperature 100 mM sodium phosphate buffer (pH 7), manually adding 1 μl of 0.5 μg/μl coelenterazine or analog, manually mixing, and reading for 10 s in a luminometer. The time between the addition of the luciferin and the start of measurement was approximately 4 s.
row,Molecule,Activity (relative to RLuc) bc
1,B1,1.2
2,B2,1.4
3,B3,2.1
4,B4,1.3
5,B5,1.1
6,B6,1.4
7,B7,0.95
8,B8,0.03
9,B9,2.8
10,B10,0.83
11,B11,1.0

# Same assay, conditions: bisdeoxycoelenterazine; relative to native enzyme
row,Molecule,Activity (relative to RLuc) bdc
1,B1,2.4
2,B2,2.6
3,B3,2.6
4,B4,1.6
5,B5,1.2
6,B6,1.7
7,B7,3.0
8,B8,0.03
9,B9,9.5
10,B10,0.86
11,B11,1.3

# Same assay, conditions: coelenterazine-cp; relative to native enzyme
row,Molecule,Activity (relative to RLuc) cp
1,B1,0.58
2,B2,1.7
3,B3,1.9
4,B4,0.95
5,B5,1.1
6,B6,1.6
7,B7,1.3
8,B8,0.01
9,B9,3.4
10,B10,0.57
11,B11,1.1

# Same assay, conditions: coelenterazine-n; relative to native enzyme
row,Molecule,Activity (relative to RLuc) n
1,B1,1.4
2,B2,1.4
3,B3,1.9
4,B4,1.5
5,B5,1.0
6,B6,1.6
7,B7,1.1
8,B8,0.06
9,B9,5.0
10,B10,0.72
11,B11,1.0

# Same assay, conditions: native coelenterazine; relative to native enzyme
row,Molecule,Activity (relative to RLuc) native
1,B1,1.7
2,B2,1.7
3,B3,2.5 ± 0.3
4,B4,1.7
5,B5,1.2
6,B6,1.9
7,B7,1.1
8,B8,0.03
9,B9,3.9
10,B10,1.0
11,B11,1.1

# Tested on: not listed separately
# Assay: Serum stability in mouse serum at 37° C.
# Assay type: in vitro ADME
# Details: mouse serum, 37° C., mono-exponential fit
# Experimental: (§1) Serum stability measurements were done by mixing 0.5 μl dilute Luciferase with either 20 μl mouse serum or 50 μl rat serum (Equitech-Bio, Kerrville, Tex.) placing the sample in a 37° C. incubator, and removing aliquots for activity testing. To calculate serum half-lives, mono-exponential decay curves were fit to the serum stability data using a Nelder/Mead Simplex non-linear least squares minimization algorithm provided by the Octave numerical programming language. Emission spectra at ambient temperature were measured using a Triax 320 (Horiba Jobin Yvon, Edison, N.J.), which incorporates an optical grating device with a liquid N2 cooled CCD detector.
row,Molecule,Serum τ1/2 (h) mouse [h]
1,B1,30
2,B2,18
3,B3,12
4,B4,30
5,B5,3.3
6,B6,15
7,B7,1.3
8,B8,5.8
9,B9,28
10,B10,5.0
11,B11,3.5

# Tested on: not listed separately
# Assay: Serum stability in rat serum at 37° C.
# Assay type: in vitro ADME
# Details: mono-exponential fit
# Experimental: as §1
row,Molecule,Serum τ1/2 (h) rat [h]
1,B1,29
2,B2,14
3,B3,11
4,B4,29
5,B5,3.6
6,B6,10
7,B7,1.4
8,B8,6.4
9,B9,20
10,B10,4.9
11,B11,3.9

# Tested on: not listed separately
# Assay: Bioluminescence emission spectra
# Assay type: physicochemical
# Details: emission spectrum with native coelenterazine
# Experimental: as §1
Molecule,Wavelength (nm) mean [nm],Wavelength (nm) peak [nm]
B1,504,486
B2,498,482
B3,498,482
B4,497,480
B5,489,473
B6,488,471
B7,493,477
B8,495,478
B9,496,478
B10,497,480
B11,497,481

# Tested on: not listed separately
# Assay: Quantum yield measurements
# Assay type: biochemical
# Details: benzyl-coelenterazine
# Experimental: For quantum yield measurements, separate 1 μl drops of protein (about 2 pm) and substrate (0.2 pm) were placed in a tube, 100 μl of 100 mM sodium phosphate buffer (pH 7) was injected by the luminometer to mix, and the total light output was integrated (generally 5-10 min). For coelenterazine-n, the protein amount was increased 10 fold and the acquisition time lengthened to insure the reaction approached completion.
row,Molecule,Quantum Yield (%) bc [%]
1,B1,3.9 ± 0.1
2,B2,3.4 ± 0.04
3,B3,3.3 ± 0.1
4,B4,3.5 ± 0.1
5,B6,3.5 ± 0.1
6,B9,5.0 ± 0.1

# Same assay, conditions: bisdeoxycoelenterazine
row,Molecule,Quantum Yield (%) bdc
1,B1,(1.0 ± 0.9) × 10^−3%
2,B2,(6.7 ± 0.3) × 10^−3%
3,B3,(7.1 ± 0.3) × 10^−3%
4,B4,(6.3 ± 0.7) × 10^−3%
5,B6,(7.6 ± 0.3) × 10^−3%
6,B9,(20.9 ± 0.6) × 10^−3%

# Same assay, conditions: coelenterazine-cp
row,Molecule,Quantum Yield (%) cp [%]
1,B1,4.5 ± 0.1
2,B2,5.0 ± 0.1
3,B3,5.1 ± 0.1
4,B4,4.8 ± 0.1
5,B6,5.1 ± 0.2
6,B9,7.2 ± 0.3

# Same assay, conditions: coelenterazine-n
row,Molecule,Quantum Yield (%) n [%]
1,B1,5.7 ± 0.1
2,B2,5.9 ± 0.2
3,B3,6.0 ± 0.1
4,B4,5.8 ± 0.2
5,B6,5.8 ± 0.1
6,B9,7.7 ± 0.2

# Same assay, conditions: native coelenterazine
row,Molecule,Quantum Yield (%) native [%]
1,B1,5.7 ± 0.2
2,B2,5.3 ± 0.1
3,B3,5.4 ± 0.1
4,B4,5.2 ± 0.3
5,B6,5.5 ± 0.1
6,B9,6.1 ± 0.2

# Target: MDR1 P-glycoprotein (Pgp) (Homo sapiens, UniProt P08183)
# Assay: not given
# Details: cited from earlier work
# MDR1 P-glycoprotein (Pgp), sequence (P08183 whole entry): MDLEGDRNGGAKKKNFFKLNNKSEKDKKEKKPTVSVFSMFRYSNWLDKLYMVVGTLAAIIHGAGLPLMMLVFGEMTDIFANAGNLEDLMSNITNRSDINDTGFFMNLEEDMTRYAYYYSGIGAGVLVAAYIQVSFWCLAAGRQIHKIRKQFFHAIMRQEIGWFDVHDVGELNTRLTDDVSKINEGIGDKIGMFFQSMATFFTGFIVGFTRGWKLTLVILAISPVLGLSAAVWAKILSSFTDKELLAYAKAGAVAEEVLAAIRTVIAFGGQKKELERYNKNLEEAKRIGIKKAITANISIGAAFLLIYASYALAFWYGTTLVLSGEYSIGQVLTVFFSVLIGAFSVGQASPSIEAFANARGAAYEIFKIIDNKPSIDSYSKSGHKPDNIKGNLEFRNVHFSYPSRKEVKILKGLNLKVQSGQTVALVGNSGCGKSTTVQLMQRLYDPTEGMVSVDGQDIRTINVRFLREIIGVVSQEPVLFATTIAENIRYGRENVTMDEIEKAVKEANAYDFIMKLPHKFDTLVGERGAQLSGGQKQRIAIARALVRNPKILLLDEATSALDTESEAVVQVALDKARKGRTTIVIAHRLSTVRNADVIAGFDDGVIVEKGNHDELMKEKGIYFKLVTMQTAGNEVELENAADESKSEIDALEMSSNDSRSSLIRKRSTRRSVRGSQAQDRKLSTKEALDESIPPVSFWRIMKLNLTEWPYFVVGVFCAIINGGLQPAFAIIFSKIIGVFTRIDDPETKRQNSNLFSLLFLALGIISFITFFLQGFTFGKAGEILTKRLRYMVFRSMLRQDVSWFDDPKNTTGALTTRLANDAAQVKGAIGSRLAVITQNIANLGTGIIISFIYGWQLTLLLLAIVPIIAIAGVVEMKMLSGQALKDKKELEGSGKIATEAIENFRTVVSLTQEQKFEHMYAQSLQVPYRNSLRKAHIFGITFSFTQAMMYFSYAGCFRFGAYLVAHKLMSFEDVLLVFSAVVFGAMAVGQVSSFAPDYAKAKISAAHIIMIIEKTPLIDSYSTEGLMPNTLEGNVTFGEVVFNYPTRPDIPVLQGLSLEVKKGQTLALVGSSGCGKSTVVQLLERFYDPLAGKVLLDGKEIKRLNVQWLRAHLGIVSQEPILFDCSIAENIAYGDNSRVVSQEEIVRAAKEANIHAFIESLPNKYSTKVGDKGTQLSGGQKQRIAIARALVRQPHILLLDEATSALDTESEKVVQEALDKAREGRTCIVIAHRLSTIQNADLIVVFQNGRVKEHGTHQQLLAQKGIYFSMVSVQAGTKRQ
row,Molecule,substrate for MDR1 P-glycoprotein (Pgp)
1,Coelenterazine-n,not substrates for Pgp

# Same assay, conditions: mammalian cells; cited from earlier work
row,Molecule,substrate for MDR1 P-glycoprotein (Pgp)
1,Oc1ccc(Cc2nc3c(CC4CCCC4)nc(-c4ccc(O)cc4)cn3c2O)cc1 [coelenterazine-cp],not substrates for Pgp
2,"Oc1ccc(Cc2nc3c(Cc4ccccc4)nc(-c4ccc(O)cc4)cn3c2O)cc1 [coelenterazine, Coelenterazine]",is a substrate for MDR1 P-glycoprotein
